According to article PMC4186791, “The Intrinsically Disordered Regions of the Drosophila melanogaster Hox Protein Ultrabithorax Select Interacting Proteins Based on Partner Topology” (PLoS ONE, 2014):
Values belong to the binder of their own block, whether it stands above or below them.

Legend:
UbxIb N103 Pro4 = target: T1, UbxIb N103 Pro4 (Drosophila melanogaster, UniProt P83949 1-389, amino acids 2–102 removed (N103) | A226P | Q233P); test: two-hybrid; LexA-Ubx variant (pLexA) and B42-partner (pB42) co-transformed into S. cerevisiae EGY48 carrying p8op-LacZ; blue/white colonies on X-gal and liquid β-galactosidase (ONPG) assay after galactose induction at 30°C, reported in Miller units; conditions: partners not purified
T1 construct: Ultrabithorax (Ubx), Drosophila melanogaster, isoform Ib, from which amino acids 2–102 (Region 1) are removed, with the Pro4 mutations; Form is the full-length isoform Ib less the stated deletion; also called UbxIb N103 Pro4 (0, D2,0, D4, S5); source: yeast two-hybrid fusion (pLexA, S. cerevisiae EGY48)

UbxIb Δ103–216 = target: T2, UbxIb Δ103–216 (Drosophila melanogaster, UniProt P83949 1-389, Δ103-216); test: as above; conditions: partners not purified
T2 construct: source: yeast two-hybrid fusion (pLexA, S. cerevisiae EGY48)
T2 sequence (P83949 other isoform, or with tags, fused parts or gaps Δ103-216 | Δ103-216 | mutant): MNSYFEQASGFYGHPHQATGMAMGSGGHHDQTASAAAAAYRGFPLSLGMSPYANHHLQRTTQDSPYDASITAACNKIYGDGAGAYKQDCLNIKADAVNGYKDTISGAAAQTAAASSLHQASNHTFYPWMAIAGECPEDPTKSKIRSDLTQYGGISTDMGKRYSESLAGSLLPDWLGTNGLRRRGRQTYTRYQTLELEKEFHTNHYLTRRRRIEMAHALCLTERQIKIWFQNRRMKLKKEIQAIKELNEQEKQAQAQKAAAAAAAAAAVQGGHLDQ

T1 sequence (P83949 other isoform, or with tags, fused parts or gaps with the stated changes): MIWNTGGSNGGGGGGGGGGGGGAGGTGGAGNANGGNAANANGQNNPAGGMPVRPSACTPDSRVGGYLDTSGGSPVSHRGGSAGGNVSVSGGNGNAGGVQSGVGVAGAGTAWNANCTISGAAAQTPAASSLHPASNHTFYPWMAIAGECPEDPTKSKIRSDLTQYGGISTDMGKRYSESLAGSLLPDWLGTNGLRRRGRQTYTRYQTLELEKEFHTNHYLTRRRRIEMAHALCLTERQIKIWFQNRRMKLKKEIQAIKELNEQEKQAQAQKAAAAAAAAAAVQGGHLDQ

percent of reporter signal lost relative to UbxIb Pro4 (UbxIb N103 Pro4): ≥ 59%
percent of reporter signal lost relative to UbxIb Pro4 (UbxIb Δ103–216): ≥ 59%
B1: 14-3-3ε (natural protein, Drosophila melanogaster, UniProt P92177 1-262, looked up)
chain: MTERENNVYKAKLAEQAERYDEMVEAMKKVASMDVELTVEERNLLSVAYKNVIGARRASWRIITSIEQKEENKGAEEKLEMIKTYRGQVEKELRDICSDILNVLEKHLIPCATSGESKVFYYKMKGDYHRYLAEFATGSDRKDAAENSLIAYKAASDIAMNDLPPTHPIRLGLALNFSVFYYEILNSPDRACRLAKAAFDDAIAELDTLSEESYKDSTLIMQLLRDNLTLWTSDMQAEEVDPNAGDGEPKEQIQDVEDQDVS
notes: 14-3-3ε, Drosophila melanogaster; source: yeast two-hybrid fusion (pB42, S. cerevisiae EGY48)

percent of reporter signal lost relative to UbxIb Pro4 (UbxIb N103 Pro4): ≥ 59%
percent of reporter signal lost relative to UbxIb Pro4 (UbxIb Δ103–216): ≥ 59%
B2: Dishevelled (natural protein, Drosophila melanogaster, UniProt P51140 1-623, looked up)
chain: MDADRGGGQETKVIYHIDDETTPYLVKIPIPSAQVTLRDFKLVLNKQNNNYKYFFKSMDADFGVVKEEIADDSTILPCFNGRVVSWLVSADGTNQSDNCSELPTSECELGMGLTNRKLQQQQQQHQQQQQQQQQQHQQQQQQQQQQVQPVQLAQQQQQQVLHHQKMMGNPLLQPPPLTYQSASVLSSDLDSTSLFGTESELTLDRDMTDYSSVQRLQVRKKPQRRKKRAPSMSRTSSYSSITDSTMSLNIITVSINMEAVNFLGISIVGQSNRGGDGGIYVGSIMKGGAVALDGRIEPGDMILQVNDVNFENMTNDEAVRVLREVVQKPGPIKLVVAKCWDPNPKGYFTIPRTEPVRPIDPGAWVAHTQALTSHDSIIADIAEPIKERLDQNNLEEIVKAMTKPDSGLEIRDRMWLKITIPNAFIGADAVNWVLENVEDVQDRREARRIVSAMLRSNYIKHTVNKLTFSEQCYYVVNEERNPNLLGRGHLHPHQLPHGHGGHALSHADTESITSDIGPLPNPPIYMPYSATYNPSHGYQPIQYGIAERHISSGSSSSDVLTSKDISASQSDITSVIHQANQLTIAAHGSNKSSGSSNRGGGGGGGGGGNNTNDQDVSVFNYVL
notes: Dishevelled (Dsh), Drosophila melanogaster; also called Dsh; source: yeast two-hybrid fusion (pB42, S. cerevisiae EGY48)

percent of reporter signal lost relative to UbxIb Pro4 (UbxIb N103 Pro4): ≥ 59%
percent of reporter signal lost relative to UbxIb Pro4 (UbxIb Δ103–216): ≥ 59%
B3: Ribosomal protein L22 (natural protein)
chain: not shown
notes: Ribosomal protein L22 (RpL22), Drosophila melanogaster; also called RpL22; source: yeast two-hybrid fusion (pB42, S. cerevisiae EGY48)
